From patent US20230137139A1, “BIOSYNTHESIS OF CANNABINOIDS AND C[…]” (priority 2020, published 2023) come the findings set out here.

B1: t865690 (protein)
chain: MGNTTSIAGRDCLISALGGNSALAVFPNELLWTADVHEYNLNLPVTPAAITYPETAAQIAGVVKCASDYDYKVQARSGGHSFGNYGLGGADGAVVVDMKHFTQFSMDDETYEAVIGPGTTLADVDTELYNNGKRAMAHGVCPTIKTGGHFTIGGLGPTARQWGLALDHVEEVEVVLANSSIVRASNTQNQDVFFAVKGAAANFGIVTEFKVRTEPAPGLAVQYSYTFNLGSTAEKAQFVKDWQSFISAKNLTRQFYNNMVIFDGDIILEGLFFGSKEQYDALGLEDHFAPKNPGNILVLTDWLGMVGHALEDTILKLVGNTPTWFYAKSLGFRQDTLIPSAGIDEFFEYIANHTAGTPAWFVTLSLEGGAINDVAEDATAYAHRDVLFWVQLFMVNPVGPISDTTYEFTDGLYDVLARAVPESVGHAYLGCPDPRMEDAQQKYWRTNLPRLQELKEELDPKNTFHHPQGVMPA
B2: t865805 (protein)
chain: B1 chain with T55S, A122N
modifications: expressed in S. cerevisiae strain
B3: t878470 (protein)
chain: B1 chain with A57Q, G61A, A122N, T126I
modifications: expressed in S. cerevisiae strain
B4: t865728 (protein)
chain: B1 chain with A122N, T126I, H287R, A341S
B5: t865729 (protein)
chain: B1 chain with A57E, A122N, T126I, N131S
B6: t865711 (protein)
chain: B1 chain with A122G, T126I, V398F
B7: t865749 (protein)
chain: B1 chain with Y71I, A122N, T126I
modifications: expressed in S. cerevisiae strain
B8: t865714 (protein)
chain: B1 chain with A122N, T126I, M394T

Residue numbers refer to the chain shown, from its start.

One test relates to CBCA, THCA, and CBDA production. Nature of the test: In vivo TS activity assay, Example 2 protein engineering of A. niger CBCAS, cultures fed olivetolic acid. In kind it is cell-based, S. cerevisiae. The settings on record: secondary screen. Here is the method:
(§1) An assay to detect TS activity was conducted as follows: each thawed glycerol stock of candidate CBCAS transformants was stamped into a well of YEP+4% dextrose media. Samples were incubated at 30° C. in a shaking incubator for 2 days. A portion of each of the resulting cultures was stamped into a well of YEP+4% galactose+1 mM olivetolic acid (FIG. 1 Structure 6a). Samples were incubated at 20° C. and shaken in a shaking incubator for 4 days. Every 24 hours during those 4 days, 2% galactose and 1 mM olivetolic acid were spiked into the cultures. Sodium citrate buffer adjusted to pH 5.5 was added to each well at a final concentration of 100 mM. Samples were incubated at 20° C. and shaken in a shaking incubator for 2 days. A portion of each of the resulting production cultures was stamped into a well of phosphate buffered saline (PBS). Optical measurements were taken on a plate reader, with absorbance measured at 600 nm and fluorescence at 528 nm with 485 nm excitation. Samples were incubated at 30° C. in a shaking incubator for 2 days. 100% methanol was stamped into the production cultures in half-height deepwell plates. Plates were heat sealed and frozen. Samples were then thawed for 30 min and spun down at 4° C. A portion of the supernatant was stamped into half-area 96 well plates. CBCA, THCA, and CBDA production in the samples was quantified via liquid chromatography-mass spectrometry (LC-MS).
(§2) To determine whether engineering of the A. niger CBCAS identified in Example 1 (corresponding to SEQ ID NO: 29 (with signal peptides); SEQ ID NO: 27 (without signal peptides and including an N-terminal methionine (UniProt accession No. A0A254UC34)); or SEQ ID NO: 25 (without signal peptides and without the N-terminal methionine)), could alter CBCAS substrate specificity, product specificity and/or amounts of products produced, point mutations were generated in A. niger CBCAS and the mutant versions of the protein were expressed in S. cerevisiae. A library containing 1047 A. niger CBCAS mutants was generated and screened. As in Example 1, each CBCAS mutant in the library, as well as the enzymes expressed by positive control strains, included an N-terminal MFalpha2 signal peptide (SEQ ID NO: 16) (with a methionine residue added at the N-terminus of the MFalpha2 signal peptide) and a C-terminal HDEL signal peptide (SEQ ID NO: 17).
Production of compounds of Formulae (9), (10), and/or (11), including compounds of Formulae (9a), (10a), and/or (11a) by strains expressing the mutated versions of A. niger CBCAS was quantified and compared to the production of the same compounds by a strain expressing wild-type A. niger CBCAS, a strain expressing a C. sativa THCAS, and a strain expressing a C. sativa CBDAS. The strains were screened using the same assay described in Example 1. Production of CBCA, THCA, and/or CBDA in the samples was quantified via LC-MS.
(§3) Of the original 1047 library members, 55 strains were elevated to a secondary screen to verify CBCA production. The experimental protocol for the secondary screen was identical to the primary screen, except that additional biological replicates were included per strain, and replicate production cultures for each strain were separately fed 1 mM boluses of olivetolic acid or 1 mM boluses of divaric acid. All strains were screened in quadruplicate.
On to B1, for which the “average CBCA titer compared with the A. niger positive control” value was “higher”.

Regarding B2, the “average CBCA titer compared with the A. niger positive control” value is recorded as “higher”.

On to B3, for which the “average CBCA titer compared with the A. niger positive control” value is “higher”.

With B4, the “average CBCA titer compared with the A. niger positive control” value is “higher”.

Take B5: the “average CBCA titer compared with the A. niger positive control” value is reported as “higher”.

Consider B6, for which the “average CBCA titer compared with the A. niger positive control” value is on record as “higher”.

Turning to B7, the “average CBCA titer compared with the A. niger positive control” value is recorded as “higher”.

B8: the “average CBCA titer compared with the A. niger positive control” value is listed as “higher”.

Staying with this test, now noted: secondary screen, olivetolic acid (Table 8).
With B1, the “Mean CBCA” value stood at 38065.26 µg/L, the “Mean CBDA” value turned out to be 8288.48 µg/L and the “Mean THCA” value came out at 2186.36 µg/L.

Consider B2, for which the “Mean CBCA” value came to 34567.68 µg/L, the “Mean CBDA” value stood at 8917.97 µg/L and the “Mean THCA” value amounted to 2285.23 µg/L.

Consider B3, for which the “Mean CBCA” value worked out at 64502.70 µg/L, the “Mean CBDA” value turned out to be 10538.52 µg/L and the “Mean THCA” value was found to be 2739.24 µg/L.

Regarding B4, the “Mean CBCA” value amounted to 36875.12 µg/L, the “Mean CBDA” value is 8996.37 µg/L and the “Mean THCA” value turned out to be 2692.19 µg/L.

As to B5, the “Mean CBCA” value turned out to be 32213.25 µg/L, the “Mean CBDA” value was determined as 8392.06 µg/L and the “Mean THCA” value was found to be 1856.57 µg/L.

In the case of B6, the “Mean CBCA” value turned out to be 33994.02 µg/L, the “Mean CBDA” value came out at 9666.71 µg/L and the “Mean THCA” value was 2096.22 µg/L.

With B7, the “Mean CBCA” value came to 37290.06 µg/L, the “Mean CBDA” value stood at 6071.00 µg/L and the “Mean THCA” value was 2140.74 µg/L.

In the case of B8, the “Mean CBCA” value worked out at 32311.22 µg/L, the “Mean CBDA” value turned out to be 6827.61 µg/L and the “Mean THCA” value was 2172.74 µg/L.

The same test, now with this note: share of terminal cannabinoid product profile.
Turning to B1, the “% CBCA” value came out at 78.42%, the “% CBDA” value was 17.08% and the “% THCA” value is listed as 4.50%.

With B2, the “% CBCA” value is recorded as 75.52%, the “% CBDA” value came to 19.48% and the “% THCA” value is on record as 4.99%.

For the molecule B3, the “% CBCA” value was found to be 82.93%, the “% CBDA” value stood at 13.55% and the “% THCA” value is 3.52%.

On to B4, for which the “% CBCA” value is 75.93%, the “% CBDA” value came out at 18.52% and the “% THCA” value is given as 5.54%.

On to B5, for which the “% CBCA” value is reported as 75.86%, the “% CBDA” value stood at 19.76% and the “% THCA” value amounted to 4.37%.

In the case of B6, the “% CBCA” value is given as 74.29%, the “% CBDA” value is recorded as 21.13% and the “% THCA” value came out at 4.58%.

Take B7: the “% CBCA” value is reported as 81.95%, the “% CBDA” value came to 13.34% and the “% THCA” value was found to be 4.70%.

B8: the “% CBCA” value worked out at 78.21%, the “% CBDA” value stood at 16.53% and the “% THCA” value is 5.26%.

The test system of another test is CBCVA, THCVA, and CBDVA production. Kind of test: In vivo TS activity assay, Example 2 protein engineering of A. niger CBCAS, cultures fed divaric acid. The settings on record: S. cerevisiae strains expressing A. niger CBCAS mutants, secondary screen, fed divaric acid. The class given is cell-based, S. cerevisiae. The protocol: as §1, §2, §3
B1: the “Mean CBCVA” value stood at 2557.72 µg/L, the “Mean CBDVA” value was determined as 0.00 µg/L and the “Mean THCVA” value was 1441.19 µg/L.

B2: the “Mean CBCVA” value was determined as 3077.84 µg/L, the “Mean CBDVA” value came out at 0.00 µg/L and the “Mean THCVA” value is 1538.55 µg/L.

On to B3, for which the “Mean CBCVA” value amounted to 3226.77 µg/L, the “Mean CBDVA” value came to 0.00 µg/L and the “Mean THCVA” value is 1646.54 µg/L.

With B4, the “Mean CBCVA” value stood at 3907.72 µg/L, the “Mean CBDVA” value came to 0.00 µg/L and the “Mean THCVA” value was 1759.32 µg/L.

Take B5: the “Mean CBCVA” value turned out to be 3685.70 µg/L, the “Mean CBDVA” value was 0.00 µg/L and the “Mean THCVA” value is 1839.38 µg/L.

B6: the “Mean CBCVA” value was 2442.93 µg/L, the “Mean CBDVA” value was 0.00 µg/L and the “Mean THCVA” value came out at 1315.45 µg/L.

On to B7, for which the “Mean CBCVA” value came to 2230.06 µg/L, the “Mean CBDVA” value stood at 0.00 µg/L and the “Mean THCVA” value is 997.07 µg/L.

With B8, the “Mean CBCVA” value is 1775.08 µg/L, the “Mean CBDVA” value stood at 0.00 µg/L and the “Mean THCVA” value is 1101.76 µg/L.

The same test, now with this note: secondary screen.
As for B4, the “average CBCVA titer compared with the A. niger positive control” value was “higher”.

As for B5, the “average CBCVA titer compared with the A. niger positive control” value is reported as “higher”.

The test is the same for the next values; noted with them: share of terminal cannabinoid product profile, fed divaric acid.
With B1, the “% CBCVA” value turned out to be 63.96%, the “% CBDVA” value came to 0.00% and the “% THCVA” value was found to be 36.04%.

Consider B2, for which the “% CBCVA” value is recorded as 66.67%, the “% CBDVA” value is given as 0.00% and the “% THCVA” value turned out to be 33.33%.

Take B3: the “% CBCVA” value amounted to 66.21%, the “% CBDVA” value is reported as 0.00% and the “% THCVA” value is given as 33.79%.

As to B4, the “% CBCVA” value came to 68.96%, the “% CBDVA” value is given as 0.00% and the “% THCVA” value came to 31.04%.

On to B5, for which the “% CBCVA” value was 66.71%, the “% CBDVA” value turned out to be 0.00% and the “% THCVA” value came to 33.29%.

On to B6, for which the “% CBCVA” value came out at 65.00%, the “% CBDVA” value worked out at 0.00% and the “% THCVA” value amounted to 35.00%.

Regarding B7, the “% CBCVA” value is listed as 69.10%, the “% CBDVA” value was 0.00% and the “% THCVA” value worked out at 30.90%.

Take B8: the “% CBCVA” value is reported as 61.70%, the “% CBDVA” value is 0.00% and the “% THCVA” value came out at 38.30%.
